The subject of assay [1] is acne lesion. In words: Topical treatment of acne lesions in human subjects. The format is in vivo. To be noted: for visible effect on acne covered area: person, before PLAP treatment. The text has this:
Highly purified placenta derived PLAP, or essentially pure recombinant PLAP, or an essentially pure active derivative thereof, is dispersed in a suitable carrier and gently massaged onto the acne lesion. The carrier used in the invention is Vaselinum cholesterinatum, but it may be replaced by Vaselinum flavum or Vaselinum album. Vaselinum cholesterinatum consists of about 1.5 wt.-% cholesterol, about 5.0 wt.-% cerae lanae, and about 93.5 wt.-% Vaselinum flavum. In this invention, for a preparation containing PLAP or rPLAP in a carrier the term “PLAP cream” is used.
Other appropriate forms of PLAP containing compositions may contain other suitable carriers in the forms of gels, lotions, unguents, emollients, colloidal dispersions, suspensions, emulsions, oils, sprays, liposomes, non-ionic detergents, foams, mousses, and the like as used in the skin care industry with no damaging effects on the skin. Preferably, the chosen carrier would enable PLAP to exert its antiacne effect or at least would not reduce it. In addition, the carrier should not be comedogenic and should not inhibit interaction of PLAP with the acne lesion. In the preparation of the carrier-PLAP mixture, PLAP is first dissolved in distilled water or a suitable buffer and then mixed with the carrier. The PLAP cream contains highly purified PLAP or rPLAP, in the amount of 0.1 to 10 mg per one gram carrier gently massaged onto the area of acne lesion. The amount of PLAP depends on the severity of acne. In cases of light, moderate and severe acnes the recommended amount of PLAP per 1 gram carrier is 0.1 to 0.5 mg, 0.6 to 2 mg, and 2.1 to 10 mg PLAP, respectively. Before each daily treatment the acne lesion needs to be cleaned with a facial cleanser as recommended by the manufacturer. The length of the daily treatments is typically for about 3 weeks, but it may be extended until the lesion is healed.
Complete recovery of the original skin texture required about 5 weeks with no additional treatments needed between 3 to 5 weeks.
Complete recovery of the original skin texture required about 6 weeks with no additional treatments needed between 3 to 6 weeks.
Complete recovery of the original skin texture required about 8 weeks with no additional treatments needed between 4 to 8 weeks.
This idea was tested with 16-17-year-old males who started to develop acne during a 2 to 4-day period. Treatments (2-mg PLAP in 1-gram Vaselinum cholesterinatum) were applied at bedtime only once.

Assay [2] deals with shingles. In words: Treatment of shingles in human subjects. Type of assay: in vivo. To be noted: two subjects, recurrent painful shingles, oral, 4-times a day. As to the method:
The PLAP cream can be used for the local treatment of Shingles or other skin lesions caused by reactivated HSV-1 or HSV-2 generally, but not always, along with treatment with a prescribed antiviral drug. The same carriers and additives may be used as described for the acne treatment, The recommended amount of PLAP per 1 gram carrier is 2.0 to 10.0 mg. Generally, the larger the lesion the more PLAP per 1 gram carrier is needed. As examples, if the area of the lesion is 10 cm^2 or smaller, 2 mg per 1 gram carrier is suitable. If the area of the lesion is larger than 10 cm^2 then, depending on the lesion’s size, the recommended concentration of PLAP is between 2.1 to 10.0 mg per 1 gram carrier. Local treatment of the lesion with PLAP cream is performed once daily along with oral administration of the prescribed antiviral drug (usually four-times a day). Local administration of the antiviral drug is not recommended. In case of shingles, when the lesion treated with placental alkaline phosphatase or an active derivative is smaller than 2.0 cm^2, the use of an antiviral drug is optional. In cases of skin lesions caused by HSV-1 or HSV-2, the use of an oral antiviral drug is optional regardless of the lesion’s size.
Two individuals (one person and one person) had recurrent painful shingles at 10-16 months intervals, usually lasting for 4-6 weeks without treatment, associated with pain lasting beyond 6 weeks that prevented them to get a good night sleep.
When a new recurrence of shingles occurred again, the same two subjects were co-treated with local PLAP cream (5 mg PLAP in 1-gram Vaselinum cholesterinatum) and oral acyclovir. The two subjects responded to this combination treatment similarly.
They started the treatment with acyclovir and PLAP cream on day 0. […] Complete healing of both subjects occurred by day 12 (the subject) and day 14 (the subject).
Two female individuals, had recurrent (practically yearly) moderate shingles (one had under the breast, the other had on the arm, both approximately the size of 1-2 cm^2) previously lasting for about 2-3 weeks. […]

For assay [3], the system named is HaCaT cells. As to the kind of experiment: MTT assay, proliferation/viability of HaCaT keratinocytes. The format is cell-based, human. To be noted: 72 hours; for Viability of Cells (Absorption: A540) HaCaT cells: MTT, 200 nM PLAP or rPLAP, 100 µM ATP, mean ± S.D. of eight wells. From the text: The immortalized human HaCaT keratinocyte cell line, isolated in 1988 [Boukamp, P., Petrussevska, R.T., Breitkreutz, D., Hornung, J., and Markham, A., “Normal keratinization in a spontaneously immortalized aneuploid human keratinocyte cell line,” J. Cell. Biol., 106, 761-771, 1988], was provided for these studies by the Institute of Dermatology, Szeged University, , Szeged, Hungary). HaCaT cells were maintained in 10% fetal bovine serum (FBS) and 1% penicillin-streptomycin -containing Dulbecco’s modified Eagle’s medium (DMEM) up to 80% confluency in an incubator (5% CO2, 37° C.). Cells were plated into 96 well plates at 20% confluency and incubated for 72 hours in an incubator (5% CO2, 37° C.) with 200 nM purified PLAP or rPLAP in the absence or presence of 100 µM ATP.
(§1) The relative changes in the number of viable cells were determined by the MTT assay. This colorimetric assay is based on the ability of living healthy cells (mostly the mitochondrial compartment), but not dead cells, to reduce 3-(4,5-dimethyl thizaol-2-yl)-[…] to a blue formazan product [Carmichael, J., De Graft, W.G., Gazdar, A.F., Minna, J.D. and Mitchell, J.B. Evaluation of tetrazolium-based semi-automated colorimetric assay: Assessment of chemosensitivity resting. Cancer Res. 47, 936-942, 1987] This technique is a widely used and accepted method to accurately determine the relative numbers of viable cells. For example, this is the official method used by the National Cancer Institute to screen anticancer drugs.
(§2) A MULTISKAN MS microplate reader purchased from Labsystems (Franklin, Massachusetts) was used to measure the formation of formazan as an increase in absorbance at a test wavelength of 540 nm and a reference wavelength of 690 nm. In the data analysis, data were expressed as mean values ± standard deviation (S.D.) of eight incubations (from eight wells) in one experiment. In each case, incubations were performed for 72 hours.

Assay [4] concerns CCD 966 SK fibroblasts. In words: MTT assay, proliferation/viability of CCD 966 SK fibroblasts. The format is cell-based, human. To be noted: 72 hours; for Viability of Cells (Absorption: A540) CCD 966 SK: MTT, 200 nM PLAP or rPLAP, 100 µM ATP, mean ± S.D. of eight wells. On the procedure:
CCD 966 SK fibroblasts, originally derived from a subject and purchased from American Type Culture Collection (Alexandria, Virginia), were at passage 5 when used. The fibroblasts were maintained and treated as described above for the HaCaT cells.
as §1, §2
A general note: Formazan colour is commonly taken as a measure of viable cells.

In assay [5] the test system is HaCaT cells. As to the kind of experiment: [U-14C]ATP hydrolysis and adenosine formation in intact HaCaT cells. Type of assay: cell-based, human. To be noted: 2 hours. On the procedure: (§3) In these experiments, PLAP was incubated with human HaCaT cells and human 966 SK fibroblasts. The plasma membranes of both cell lines contain ectonucleotidases that hydrolyze ATP to result in the formation of adenosine. If PLAP binds ATP as reported earlier, it will compete with the ectonucleotidases for ATP. In this case, in the presence of PLAP the formation of adenosine, the final product of ATP hydrolysis, should be reduced. The experiment performed under this Example served to examine this possibility.
(§4) HaCaT and 966 SK cells were grown in 10% serum containing DMEM medium (0.1 ml) in 96-well plates to confluence. First, the medium was changed for serum-free medium. […] (0.1 mM) of [U-^14C] ATP (purchased from Amersham). Incubations in an incubator were performed for 2 hours. […] aliquots were withdrawn into small centrifuge tubes followed by the addition of 0.15 ml of chloroform methanol 2:1 mixture containing 1 mM adenosine (to help UV visualization and reduce cellular uptake of [U-^14C] Adenosine) to precipitate the proteins and eliminate lipids. After centrifugation, 5 µl aliquots of the lower phase were transferred to fluorescent PEI-cellulose (polyethyleneimine-impregnated cellulose) plates, and after drying the plates they were developed with water in a flat bottom chamber. After drying and visualizing the adenosine and nucleotide spots under UV (all nucleotides remained in the application spots), the respective areas were cut out, placed in scintillation vials, and radioactivity was measured in a liquid scintillation spectrometer. Data is the mean of three independent determinations (from three separate wells) ± S.D. in the same experiment.

Assay [6] concerns CCD 966 SK cells. As to the kind of experiment: [U-14C]ATP hydrolysis and adenosine formation in intact CCD 966 SK fibroblasts. Type of assay: cell-based, human. To be noted: 2 hours. On the procedure: as §3, §4
Setting [7] is: CCD 966 SK fibroblasts, agent alone.
The mark [8] stands for this setting: PLAP, 500 nM, 0.1 mM [U-14C]ATP, mean ± S.D. of three wells.

The values that follow come from US20230190885A1, “PLACENTAL ALKALINE PHOSPHATASE TO PROMOTE SCAR-FREE HEALING OF ACNE VULGARIS AND OTHER INFLAMMATORY SKIN LESIONS CAUSED BY MICROBIAL INFECTIONS” (priority 2021, published 2023).

Consider `O=C(OOC(=O)c1ccccc1)c1ccccc1` [benzoyl peroxide], for which the “visible effect on acne covered area” value in assay [1] (left side of face, as prescribed for 2 months) is recorded as “only small visible positive effects”; in assay [1] (left side of face, as prescribed for 3 months), “only small visible positive effects”; in assay [1] (right side of face, as prescribed for 2 months), “only small visible positive effects”; in assay [1] (right side of face, as prescribed for 3 months), “only small visible positive effects”.

Turning to `Nc1nc2c(ncn2COCCO)c(=O)[nH]1` [acyclovir], in assay [2], the effect on pain result was “no significant effect on pain” and the “time of full healing of shingles” value is recorded as “by the end of third week”. Also, the remission of shingles in assay [2] (in 10-12 days) is on record as 40-50%.

In the case of `Nc1ncnc2c1ncn2[C@@H]1O[C@H](COP(=O)(O)OP(=O)(O)OP(=O)(O)O)[C@@H](O)[C@H]1O` [ATP, adenosine 5′ triphosphate, reference compound], the “effect on proliferation (in words)” value is “no effects” in assay [3] (HaCaT cells, agent alone) and “no effects” in assay [4] (setting [7]). In addition, the “Viability of Cells (Absorption: A540) HaCaT cells” value in assay [3] was 0.841±0.037. Further, the “Viability of Cells (Absorption: A540) CCD 966 SK” value in assay [4] was 0.686±0.029.

B1: PLAP: full length placental alkaline phosphatase, highly purified from commercial PLAP (Sigma-Aldrich) (protein, UniProt P05187 23-506, looked up)
Alkaline phosphatase, …: IIPVEEENPDFWNREAAEALGAAKKLQPAQTAAKNLIIFLGDGMGVSTVTAARILKGQKKDKLGPEIPLAMDRFPYVALSKTYNVDKHVPDSGATATAYLCGVKGNFQTIGLSAAARFNQCNTTRGNEVISVMNRAKKAGKSVGVVTTTRVQHASPAGTYAHTVNRNWYSDADVPASARQEGCQDIATQLISNMDIDVILGGGRKYMFRMGTPDPEYPDDYSQGGTRLDGKNLVQEWLAKRQGARYVWNRTELMQASLDPSVTHLMGLFEPGDMKYEIHRDSTLDPSLMEMTEAALRLLSRNPRGFFLFVEGGRIDHGHHESRAYRALTETIMFDDAIERAGQLTSEEDTLSLVTADHSHVFSFGGYPLRGSSIFGLAPGKARDRKAYTVLLYGNGPGYVLKDGARPDVTESESGSPEYRQQSAVPLDEETHAGEDVAVFARGPQAHLVHGVQEQTFIAHVMAFAACLEPYTACDLAPPAGTTD
Turning to B1, the “effect on proliferation (in words)” value is on record as “clearly stimulated proliferation” in assay [3] (HaCaT cells, agent alone); “inhibited the proliferation” in assay [3] (epidermal (HaCaT) cells, in the presence of ATP); “clearly stimulated proliferation” in assay [4] (setting [7]); “inhibited the proliferation” in assay [4] (fibroblasts (CCD 966 SK), in the presence of ATP). Further, the “Viability of Cells (Absorption: A540) HaCaT cells” value in assay [3] came out at 1.086± 0.047. Besides, the “formation of radiolabeled adenosine (in words)” value in assay [5] and in assay [6] was “dramatic reduction” each time. Besides, the “hydrolysis of ATP and related nucleotides (in words)” value in assay [5] and in assay [6] was “greatly reduced the hydrolysis” in each case. Moreover, the “Total [U-14C] nucleotide” value in assay [5] (setting [8]) is given as 1,572,853 ± 33,737 c.p.m./well; in assay [6] (setting [8]), 1,653,949 ± 42,791 c.p.m./well. The “[U-14C] Adenosine” value in assay [5] (setting [8]) is given as 71,048 ± 2,220 c.p.m./well; in assay [6] (setting [8]) it was 34,019 ± 4,892 c.p.m./well. Moreover, the “Viability of Cells (Absorption: A540) CCD 966 SK” value in assay [4] is recorded as 0.853±0.040. In addition, the “time to complete healing of acne” value in assay [1] (16-17-year-old males, acne developing during 2 to 4 days, 2-mg PLAP in 1-gram Vaselinum cholesterinatum, applied once at bedtime) is 2 to 5 days. In assay [1] (16-17-year-old males, early acne, 2-mg PLAP in 1-gram carrier, applied once), the scar tissue formation entry was “without any scar tissue formation”.
